Reference: patent publication US20230331852A1 (OSE IMMUNOTHERAPEUTICS, published 2023)

T1: Fc-CLEC1 labelled with Alexa Fluor 488 (human, Alexa Fluor 488 label (sites not given))
T1 construct: also called Fc-CLEC1-A488; Alexa488-Fc-Clec-1
T1 chain: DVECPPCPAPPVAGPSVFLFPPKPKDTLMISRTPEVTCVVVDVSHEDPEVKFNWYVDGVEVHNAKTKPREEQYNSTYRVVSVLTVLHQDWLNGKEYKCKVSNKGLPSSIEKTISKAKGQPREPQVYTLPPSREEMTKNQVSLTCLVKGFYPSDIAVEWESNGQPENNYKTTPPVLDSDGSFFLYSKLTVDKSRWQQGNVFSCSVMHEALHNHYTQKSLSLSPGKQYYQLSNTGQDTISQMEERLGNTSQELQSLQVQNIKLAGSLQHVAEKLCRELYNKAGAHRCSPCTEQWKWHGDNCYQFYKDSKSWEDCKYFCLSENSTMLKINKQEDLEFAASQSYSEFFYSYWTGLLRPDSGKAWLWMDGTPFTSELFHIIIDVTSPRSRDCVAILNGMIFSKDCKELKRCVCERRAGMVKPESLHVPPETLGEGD

T2: human CLEC-1A expressed on the cell membrane (human, UniProt Q8NC01 1-280)
T2 construct: Endogenous on human U266 myeloma cells, on monocyte-derived TGFb-DC and macrophages; on CHO cells after transduction with a Clec-1 expressing lentivirus; also called U266 CLEC1; CLEC-1A on U266 cells
T2 sequence: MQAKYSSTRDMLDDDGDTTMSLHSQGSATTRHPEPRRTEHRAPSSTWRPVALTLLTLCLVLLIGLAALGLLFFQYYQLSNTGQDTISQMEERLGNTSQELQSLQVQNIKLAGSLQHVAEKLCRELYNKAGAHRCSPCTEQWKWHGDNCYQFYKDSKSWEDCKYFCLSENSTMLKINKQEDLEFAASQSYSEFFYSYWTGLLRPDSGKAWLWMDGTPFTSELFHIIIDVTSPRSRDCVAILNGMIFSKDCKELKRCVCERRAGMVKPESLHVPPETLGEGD

T3: recombinant human CLEC-1 protein with His Tag (#1704-CL R&D Systems) (human, UniProt Q8NC01 74-280)
T3 construct: Bought protein; also called His-CLEC1; His Clec-1; not shown: His tag
T3 sequence: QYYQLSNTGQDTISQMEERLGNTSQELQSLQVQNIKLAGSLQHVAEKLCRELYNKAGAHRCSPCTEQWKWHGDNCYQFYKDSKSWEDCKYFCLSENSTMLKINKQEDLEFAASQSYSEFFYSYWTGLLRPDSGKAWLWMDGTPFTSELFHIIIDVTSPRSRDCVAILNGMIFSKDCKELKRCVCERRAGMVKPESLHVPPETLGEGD

B1: murine anti-hCLEC1 antibody 10F4-H2 (antibody, V domains shown)
VH: QVQLQQSGTELARPGASVKMSCKASGYIFTDYTIHWVKQRPGQGLEWVGYINPSSGYTNYNQKFKAKATLTADKSSSTAYMQLSSLTSEDSAVYYCTPMFRRSYFDYWGQGTTLTVSS
VL: DAVMTQTPLSLPVSLGDQASISCRSSQSLENSNGNTYLNWYLQKPGQSPQLLIYRVSNRFSGVLDRFSGSGSGTDFTLKISRVEAEDLGVYFCLQVTHVPYTFGGGTKLEIK
notes: Mouse hybridoma antibody
B2: murine anti-hCLEC1 antibody 6C5-A4 (antibody, V domains shown)
VH: QVQLQQSGPELVKPGASVKMSCKASGYTFTDYVISWVKQKTGQGLEWIGEIYPGSGNTYYNEKFKGKATLTADKSSSTAYIHLSSLTSEDSAVYFCAGGGSSHFDYWGQGTTLTVSS
VL: not shown
notes: Mouse hybridoma antibody
B3: murine anti-hCLEC1 antibody 14H9-F3 (antibody, V domains shown)
VH: QVQLKESGPGLVAPSQSLSITCTISGFSLTTYGIHWVRQPPGKGLEWLVVIWSDGSTIYNSALKSRLSISKDNSKSQVFLKMNSLQTDDTAIYYCARHGGYYNYFDYWGQGTTLTVSS
VL: DIQMNQSPSSLSASLGDTITITCHASQNINVWLSWYQQKPGNIPKLLIYKASNLHTGVPSRFSGSGSGTTFTLTIDSLQPEDIATYYCQQGQSYWTFGGGTKLEIK
notes: Mouse hybridoma antibody
B4: murine anti-hCLEC1 antibody 21B1-E10 (antibody, V domains shown)
VH: QVQLKESGPGLVAPSQSLSITCTISGFSLTTYGIHWVRQPPGKGLEWLVVIWSDGSTIYNSALKSRLSISKDNSKSQVFLKMNSLQTDDTAIYYCARHGGYYNYFDYWGQGTTLTVSS
VL: DIVMSQSPSSLAVSVGEKVTLTCKSTQNLFYSTNQKNYLAWYQQKPGQSPKLLIYWASTRESGVPDRFTGSGSGTDFTLTISSVKAEDPAVYYCQQYYTYPWTFGGGTKLEIK
notes: tied to the 21B1 variable domains by name
B5: murine anti-hCLEC1 antibody 5D1-A5 (antibody, V domains shown)
VH: QVQLKESGPGLVAPSQSLSITCTISGFSLTSYGVHWVRQPPGKGLEWLVVIWSDGSTIYNSALKSRLSISKDNSKSQVFLKMNSLQTDDTAMYYCARHGGYYNYFDYWGQGTTLTVSS
VL: DIQMNQSPSSLSASLGDTITITCHASQNINVWLSWYQQKPGNIPKLLIYKASNLHTGVPSRFSGSGSGTGFTLTISSLQPEDIATYYCQQGQSYWTFGGGTKLEIK
notes: Mouse hybridoma antibody
B6: murine anti-hCLEC1 antibody 15E3-G3 (antibody, V domains shown)
VH: QVQLQQSGPELVKPGASVKMSCKASGFTFTDYVIAWVKVRTGQGLEWIGEIYPGSGSIYYNEKFKGKATLTADKSSNTAYMQLSSLTSEDSAVYFCASSTVVAFDYWGQGTTLTVSS
VL: EIVLTQSPTTLAASPGEKIIITCSDSSSISSNYLHWYQQKPGFSPKLLIYGTSNLASGVPARFSGSGSGTTYSLTIGTMEAEDVATYYCQQGSSIPRTFGGGTKLEIK
notes: Mouse hybridoma antibody
B7: murine anti-hCLEC1 antibody 11H11-G11 (antibody, V domains shown)
VH: QIHLVQSGPELKKPGETVKISCKASGYTFTNFGMNWVKQAPGKGLKWMGWINTNTGEPTYADDFKGRFAFSLETSASTAYLQINNLKNEDTATYFCARGAPAWFTYWGQGTLVTVSA
VL: DIQMTQSPASLSASVGETVTITCRATENIYSYLAWYQQKQGKSPQFLVYNAKTLAEGMPSRFSGSGSGTQFSLKINILQPEDFGTYYCQHHFGTPLTFGAGTKLELK
notes: Mouse hybridoma antibody

Legend:
[1] = biological target: T1, Fc-CLEC1 labelled with Alexa Fluor 488; experiment: FACS competition: blocks Fc-CLEC1-A488 (20 nM) binding to CLEC-1 ligand on permeabilised Raji cells; read-out % + cells
Method: (§1) Methods. To measure competition on permeabilised Raji (CytoFix/cytoperm kit, BD Biosciences) which expressed CLEC1 ligand, Fc-CLEC1-labelled A488 which bound specifically to permeabilised Raji was used. To measure competition, Fc-CLEC1 labelled A488 at 10 nM or 20 nM was mixed with mouse anti-hCLEC1 at different concentrations for 15 min at RT then added on these cells for 30 min at 4° C. […] To measure competition on PMBC, we used human PBMC pre-treated by UV for 18 h to obtain apoptotic PBMC, which expressed CLEC1 ligand. Fc-CLEC1-labelled A488 bound specifically apoptotic UV-treated PBMC. To measure competition, Fc-CLEC1 labelled A488 at 10 nM was mixed with mouse anti-hCLEC1 at different concentrations for 15 min at RT then added on these cells for 30 min at 4° C.

[2] = biological target: T2, human CLEC-1A expressed on the cell …; experiment: flow cytometry on U266 cells; printed as ED50, read-out Mean
[3] = biological target: T2, human CLEC-1A expressed on the cell …; experiment: flow cytometry on U266 cells; printed as ED50, read-out % + cells
[4] = biological target: T1, Fc-CLEC1 labelled with Alexa Fluor 488; experiment: FACS competition: blocks Fc-CLEC1-A488 (20 nM) binding to CLEC-1 ligand on permeabilised Raji cells; read-out Mean
Method: as §1

[5] = biological target: T3, recombinant human CLEC-1 protein with …; experiment: Blitz biolayer interferometry, His-CLEC1 on Ni-NTA biosensor, antibody at 20 ug/mL
Method: (§2) Analysis was performed with a BLItz System (Fortébio, #C22-2 No 61010-1, Molecular Devices, San José, USA).
(§3) The affinity of the anti-hCLEC1 antibodies, was measured with Blitz system (Forté Bio, C22-2 No 61010-1).

[6] = biological target: T1, Fc-CLEC1 labelled with Alexa Fluor 488; experiment: FACS competition: blocks Fc-CLEC1-A488 (10 nM) binding to CLEC-1 ligand on permeabilised Raji cells; read-out Mean
Method: as §1

[7] = biological target: T1, Fc-CLEC1 labelled with Alexa Fluor 488; experiment: FACS competition: blocks Fc-CLEC1-A488 (10 nM) binding to CLEC-1 ligand on UV-treated PBMC; read-out % + cells
Method: as §1

[8] = biological target: T1, Fc-CLEC1 labelled with Alexa Fluor 488; experiment: FACS competition: blocks Fc-CLEC1-A488 (10 nM) binding to CLEC-1 ligand on UV-treated PBMC; read-out Mean
Method: as §1

[9] = biological target: T3, recombinant human CLEC-1 protein with …; experiment: ELISA on immobilised human His-CLEC1 (column hm His Clec); given as ED50
Method: Method: The binding activity of the anti-hCLEC1 antibodies was assessed by ELISA (Enzyme-linked immunosorbent assay). […] A second ELISA assays was performed, like above, with immobilization of CLEC1-Fc (OSE Immunotherapeutics) at 2 μg/ml. A third ELISA assays was performed to see the cross-reactivity with mouse CLEC1. Like above, ELISA was made with immobilization of mouse Fc-CLEC1 (OSE Immunotherapeutics) at 2 μg/ml in carbonate buffer instead of His-Clec. Purified antibodies were added at different concentrations to measure binding. […] Control antibody is a commercial anti-CLEC-1A antibody.

[10] = biological target: T1, Fc-CLEC1 labelled with Alexa Fluor 488; experiment: FACS competition: blocks Fc-CLEC1-A488 (10 nM) binding to CLEC-1 ligand on permeabilised Raji cells; read-out % + cells
Method: as §1

[11] = biological target: T3, recombinant human CLEC-1 protein with …; experiment: BLI (Blitz), CLEC1-His on Ni-NTA biosensor, antibody at 20 ug/mL; murine clone, FIG. 16
Method: as §2, §3

| IC50 [1] [µg/mL] | EC50 [2] [µg/mL] | EC50 [3] [µg/mL] | IC50 [4] [µg/mL] | Kd [5] [nM] | koff [5] [s⁻¹] | kon [5] [M⁻¹ s⁻¹] | IC50 [6] [µg/mL] | IC50 [7] [µg/mL] | IC50 [8] [µg/mL] | EC50 [9] [µg/mL] | IC50 [10] [µg/mL] | Kd [11] [nM] | Binder |
| --- | --- | --- | --- | --- | --- | --- | --- | --- | --- | --- | --- | --- | --- |
| 0.82 | 0.22 | 0.034 | 2.5 | 5.72 | 0.000621 | 109000 | 2.1 | 0.79 | 2.8 | 0.0128 | 11 | – | B1 |
| 1.5 | 0.17 | 0.051 | 1.7 | 14.7 | 0.000934 | 63400 | 1.7 | 2 | 2.2 | 0.012 | 19 | – | B2 |
| 22 | 0.072 | 0.0065 | 2.5 | 8.24 | 0.00074 | 89800 | 0.84 | 0.031 | 3.1 | 0.157 | 3.2 | – | B3 |
| – | – | – | – | – | – | – | – | – | – | – | – | ~1 | B4 |
| 0.21 | 0.12 | 0.0064 | 3.1 | 16.1 | 0.00124 | 76600 | 4.4 | 0.13 | 3.8 | 1.31 | 12 | – | B5 |
| 14 | 0.59 | 0.074 | 3 | 14 | 0.00101 | 72200 | 1.3 | 0.69 | 4.5 | 0.0466 | 7.7 | – | B6 |
| 0.7 | 0.033 | 0.0077 | 0.72 | 2.91 | 0.000787 | 270000 | 1.5 | 0.36 | 2.7 | 0.00748 | 8 | ~1 | B7 |
